How the values were obtained:
P. acnes RON strain = experiment: Adhesion assay, biotinylated P. acnes binding to keratinocytes (NHDK); format: cell-based, Propionibacterium acnes; settings: bacteria pretreated 0.87 to 7 μM, 1 h at 37° C.
Procedure: The bacterial suspension was adjusted at 600 nm to the desired concentration, pretreated with peptides Fg1 and Fg2 at the final concentration ranging from 0.87 to 7 μM for 1 h at 37° C. and deposited on the previously saturated cells with a solution of PBS SVF 2% for 2 h. After incubation for 1 h at 37° C., unbound bacteria are removed by 3 washes with PBS and fixed bacteria are detected by a streptavidin-peroxidase solution of 0.5 μg/ml for 30 min.
Whole P. acnes bacteria are labelled by biotinylation, pre-treated or not with the peptides and contacted with the various cell lines. After removal of the unfixed bacteria, the adhesion activity was measured spectrophotometrically by using the streptavidin-peroxidase conjugate and a chromogenic substrate.
The ability of P. acnes strains 6919, RON and PIE was tested at 3 concentrations to adhere to various cells lines. It has been shown that the strains of P. acnes tested bound to the three kind of cell lines tested (keratinocytes, monocytes and fibroblast) with a maximum adhesion strength found for keratinocytes (FIG. 11). Knowing that P. acnes is able to recognize fibrinogen, it was used human and bovine whole fibrinogen to compete the interaction between the bacteria and the target cell. […] Then, the ability Fg1 to inhibit the adhesion of bacteria and RON PIE was evaluated on the 3 main types cell. […]

NHDK cells = experiment: IL-8 production by keratinocytes stimulated by peptidoglycanne (PGN); format: cell-based, human; settings: NHDK pre-treated 24 h with 1.75 to 7 μM, then PGN 10 μg/ml
Procedure: FIG. 19: Dose-dependent inhibition of IL-8 production by keratinocyte pre-treated by small Fg1-generated peptides and stimulated by peptidoglycanne (PGN). NHDK cell were incubated for 24 h with recombinant peptide Fg1 (light gray bar) and Fg2 (dark gray bar) at concentrations ranging from 1.75 to 7 μM. Measurement of IL-8 production was realized by ELISA as described in Materials and Methods. Controls experiments were done with unstimulated NHDK cell (white bar) and HDF stimulated with PGN at 10 μg/ml (black bar). Data are means±S.D. of three separate experiments. Statistical significance is indicated by * (P<0.05), ** (P<0.01), *** (P<0.001), and **** (P<0.0001), respectively. […]
Human IL-1ß, IL-8, IL-12, hBD-2, and TNF-α protein concentration was measured in the supernatants of stimulated cells using various ELISA Set kits (Ready-Set-Go kit from eBioscience for acne experiments, and for psoriasis experiments the Duo set IL-8 kit from R&D Systems and the BD-2 Human Development (hBD-2) from Peprotech) according to the manufacturer's instructions. […] The optical density was determined at 450 nm at a wavelength correction of 540 nm.
The production of IL-8 was also measured NHDK cells stimulated by LTA, LPS and PGN, in presence or not of Fg1 or Fg2. […]

HaCaT cells = experiment: IL-8 production by P. acnes-stimulated HaCaT (ELISA); format: cell-based, human; settings: 0.87 to 7 μM
Procedure: (§1) For experiences of stimulation with P. acnes, cells were incubated with the P. acnes suspension adjusted at the appropriate concentration, pre-treated for 1 h at 37° C. or not with fibrinogen recombinant peptides Fg1 and Fg2 at the concentrations 0.87, 1.75, 3.5 or 7 μM for the desired period of time at 37° C. in 5% CO2.
(§2) Human IL-1ß, IL-8, IL-12, hBD-2, and TNF-α protein concentration was measured in the supernatants of stimulated cells using various ELISA Set kits (Ready-Set-Go kit from eBioscience for acne experiments, and for psoriasis experiments the Duo set IL-8 kit from R&D Systems and the BD-2 Human Development (hBD-2) from Peprotech) according to the manufacturer's instructions. We used serial dilutions of recombinant human IL-1ß, IL-8, IL-12 and TNF-α for standard curve. The optical density was determined at 450 nm at a wavelength correction of 540 nm.
(§3) To assess the efficacy of Fg1 recombinant peptide, the production of O2^∘− and H2O2 by HaCaT cells NHDK, THP-1, MRC5 and HDF stimulated by pretreated P. acnes strains 6919, RON and PIE was measured. The amount of ROS produced was compared to that produced by the stimulated cells with untreated bacteria. Production baseline was obtained by measuring ROS on unstimulated cells. The production of IL-1ß, IL-8, IL-12 and TNF-α was also measured in all conditions cited above. The measurement of the production of ROS is performed by spectrofluorimetry in the presence of specific fluorochromes directly on the monolayer cell. Measurement of cytokine production was performed in parallel on the cell culture supernatant.
Two sets of experiments were implemented: 1) The cells were stimulated (18 h at 37° C.) by P. acnes strains previously pretreated with Fg1 and Fg2 peptides at the final concentrations ranging from 0.87 to 7 μM for 1 h at 37° C.; and 2) The cells were pretreated first with Fg1 and Fg2 peptides at the final concentrations ranging from 0.87 to 7 μM for 24 h at 37° C. and stimulated (18 h at 37° C.) by P. acnes strains. […]
Immortalized keratinocytes HaCaT cell were seeded in 96-well plates at 10^5 cells/well (Corning Costar, Brumath, France) and stimulated with P. acnes 6919 strain (O.D.620 nm=0.3) pretreated 1 h at 37° C. with the Fg1 and Fg1.1.1 peptides at the concentrations of 2.5, 5 and 10 μM for 18 h at 37° C. under 5% CO2. Then, culture supernatant was removed and the IL-8 concentration was measured by ELISA assay (eBioscience).

HDF cells = experiment: IL-8 production by P. acnes-stimulated HDF (ELISA); format: cell-based, human; settings: 0.87 to 7 μM
Procedure: as §1, §2, §3
Two sets of experiments were implemented: 1) The cells were stimulated (18 h at 37° C.) by P. acnes strains previously pretreated with Fg1 and Fg2 peptides at the final concentrations ranging from 0.87 to 7 μM for 1 h at 37° C.; and 2) The cells were pretreated first with Fg1 and Fg2 peptides at the final concentrations ranging from 0.87 to 7 μM for 24 h at 37° C. and stimulated (18 h at 37° C.) by P. acnes strains.

[1] = P. acnes 6919, set I, bacteria first pretreated
[2] = P. acnes 6919, set II, cells first pretreated
[3] = P. acnes PIE, set I, bacteria first pretreated
[4] = P. acnes PIE, set II, cells first pretreated
[5] = P. acnes RON, set I, bacteria first pretreated
[6] = P. acnes RON, set II, cells first pretreated

B1: MKRMVSWSFHKLKTMKHLLLLLLCVFLVKSQGVNDNEEGFFSARGHRPLDKKREEAPSLRPAPPPISGGGYRARPAKAAATQKKVERKAPDAGGCLHADPDLGVLC (protein)
chain: MKRMVSWSFHKLKTMKHLLLLLLCVFLVKSQGVNDNEEGFFSARGHRPLDKKREEAPSLRPAPPPISGGGRARPAKAAATQKKVERKAPDAGGCLHADPDLGVLCMKRMVSWSFHKLKTMKHLLLLLLCVFLVKSQGVNDNEEGFFSARGHRPLDKKREEAPSLRPAPPPISGGGYRARPAKAAATQKKVERKAPDAGGCLHADPDLGVLC
modifications: GST fusion; fragment Fg1
notes: fragment of Bß chain of human fibrinogen having 106 amino acids; recombinant GST-fused peptide expressed in E. coli
P. acnes RON strain
  Inhibition of adhesion of P. acnes RON strain: inhibits the adhesion of RON strain in a dose-dependent manner
NHDK cells
  Decrease of IL-8 production by PGN-stimulated cells: significantly decreases production of IL-8
HaCaT cells; [1]
  Inhibition of Interleukine 8 (IL-8) production: pos
HaCaT cells; [2]
  Inhibition of Interleukine 8 (IL-8) production: pos
HaCaT cells; [3]
  Inhibition of Interleukine 8 (IL-8) production: pos
HaCaT cells; [4]
  Inhibition of Interleukine 8 (IL-8) production: pos
HaCaT cells; [5]
  Inhibition of Interleukine 8 (IL-8) production: pos
HaCaT cells; [6]
  Inhibition of Interleukine 8 (IL-8) production: pos
HDF cells; [1]
  Inhibition of Interleukine 8 (IL-8) production: pos
HDF cells; [2]
  Inhibition of Interleukine 8 (IL-8) production: pos
HDF cells; [3]
  Inhibition of Interleukine 8 (IL-8) production: pos
HDF cells; [4]
  Inhibition of Interleukine 8 (IL-8) production: pos
HDF cells; [5]
  Inhibition of Interleukine 8 (IL-8) production: pos
HDF cells; [6]
  Inhibition of Interleukine 8 (IL-8) production: pos
